Test results as given in article PMC9830397 (European Journal of Translational Myology, 2022).

Biological target: FITC-labelled human holo-transferrin (human, UniProt P02787 20-698, FITC label (position not given); holo form)
Test: solid-phase fluorescence binding assay

FITC-labelled human holo-transferrin, sequence (P02787 20-698): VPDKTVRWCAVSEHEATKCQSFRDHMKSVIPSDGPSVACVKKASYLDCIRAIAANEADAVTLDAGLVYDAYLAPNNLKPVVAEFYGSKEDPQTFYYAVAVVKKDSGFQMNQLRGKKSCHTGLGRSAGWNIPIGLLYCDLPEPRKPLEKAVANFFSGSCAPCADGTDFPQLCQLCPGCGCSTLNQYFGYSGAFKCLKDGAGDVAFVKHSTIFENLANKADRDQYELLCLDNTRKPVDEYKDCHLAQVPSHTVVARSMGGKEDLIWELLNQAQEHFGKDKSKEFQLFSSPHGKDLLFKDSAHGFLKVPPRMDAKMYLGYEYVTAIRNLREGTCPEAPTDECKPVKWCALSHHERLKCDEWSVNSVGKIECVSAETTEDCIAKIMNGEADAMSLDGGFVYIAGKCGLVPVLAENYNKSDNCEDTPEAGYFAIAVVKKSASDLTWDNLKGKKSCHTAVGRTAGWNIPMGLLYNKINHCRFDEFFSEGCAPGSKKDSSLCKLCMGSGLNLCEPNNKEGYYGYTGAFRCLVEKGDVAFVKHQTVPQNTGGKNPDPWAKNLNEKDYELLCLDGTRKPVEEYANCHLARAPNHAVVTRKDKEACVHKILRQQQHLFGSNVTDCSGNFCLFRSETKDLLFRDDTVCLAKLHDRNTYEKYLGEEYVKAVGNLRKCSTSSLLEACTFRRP

B1: immX3AVD (peptide)
peptide: KKGFYKKKQCRPSKGRKRGFCWAVD
modifications: biotinylated (position not given); labelled with streptavidin-Alexa 488 conjugate (SA488) in the nuclear receptor assay
- binding result: binds
